Source: doi:10.1101/803361 (bioRxiv, 2019)

Tests used:
[1] = molecular target: Human Hsc70 (HSPA8), wild type (human, UniProt P11142 1-646); assay: HDX-MS
[2] = molecular target: the molecule itself; assay: SEC + native gel or EMSA

Sequence of Human Hsc70 (HSPA8), wild type (P11142 whole entry): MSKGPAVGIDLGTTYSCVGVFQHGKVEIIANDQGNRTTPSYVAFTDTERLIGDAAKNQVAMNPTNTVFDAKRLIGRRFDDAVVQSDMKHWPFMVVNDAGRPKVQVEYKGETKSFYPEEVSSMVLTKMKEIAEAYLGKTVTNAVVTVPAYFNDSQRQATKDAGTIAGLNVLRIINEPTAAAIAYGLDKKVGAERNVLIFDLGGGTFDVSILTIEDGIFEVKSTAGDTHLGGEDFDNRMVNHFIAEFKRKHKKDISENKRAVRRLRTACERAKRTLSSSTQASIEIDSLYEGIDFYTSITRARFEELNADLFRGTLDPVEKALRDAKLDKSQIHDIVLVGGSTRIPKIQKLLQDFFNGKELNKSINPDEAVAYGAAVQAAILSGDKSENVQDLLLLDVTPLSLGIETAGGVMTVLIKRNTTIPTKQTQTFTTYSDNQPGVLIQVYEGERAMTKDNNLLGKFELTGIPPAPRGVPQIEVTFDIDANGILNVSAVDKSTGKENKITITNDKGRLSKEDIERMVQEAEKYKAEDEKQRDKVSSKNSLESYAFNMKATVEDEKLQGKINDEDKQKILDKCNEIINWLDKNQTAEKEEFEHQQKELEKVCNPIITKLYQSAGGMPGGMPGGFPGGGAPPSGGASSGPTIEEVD

Binder | binding result [1] | stoichiometry N [2]
Human heat shock transcription factor 1 (Hsf1), wild type (natural protein) MDLPVGPGAAGPSNVPAFLTKLWTLVSDPDTDALICWSPSGNSFHVFDQGQFAKEVLPKYFKHNNMASFVRQLNMYGFRKVVHIEQGGLVKPERDDTEFQHPCFLRGQEQLLENIKRKVTSVSTLKSEDIKIRQDSVTKLLTDVQLMKGKQECMDSKLLAMKHENEALWREVASLRQKHAQQQKVVNKLIQFLISLVQSNRILGVKRKIPLMLNDSGSAHSMPKYSRQFSLEHVHGSGPYSAPSPAYSSSSLYAPDAVASSGPIISDITELAPASPMASPGGSIDERPLSSSPLVRVKEEPPSPPQSPRVEEASPGRPSSVDTLLSPTALIDSILRESEPAPASVTALTDARGHTDTEGRPPSPPPTSTPEKCLSVACLDKNELSDHLDAMDSNLDNLQTMLSSHGFSVDTSALLDLFSPSVTVPDMSLPDLDSSLASIQELLSPQEPPRPPEAENSSPDSGKQLVHYTAQPLFLLDPGSVDTGSNDLPVLFELGEGSYFSEGDGFAEDPTISLLTGSEPPKAKDPTVS | binds | –
Hsf1-I190S,I194S (natural protein) MDLPVGPGAAGPSNVPAFLTKLWTLVSDPDTDALICWSPSGNSFHVFDQGQFAKEVLPKYFKHNNMASFVRQLNMYGFRKVVHIEQGGLVKPERDDTEFQHPCFLRGQEQLLENIKRKVTSVSTLKSEDIKIRQDSVTKLLTDVQLMKGKQECMDSKLLAMKHENEALWREVASLRQKHAQQQKVVNKLSQFLSSLVQSNRILGVKRKIPLMLNDSGSAHSMPKYSRQFSLEHVHGSGPYSAPSPAYSSSSLYAPDAVASSGPIISDITELAPASPMASPGGSIDERPLSSSPLVRVKEEPPSPPQSPRVEEASPGRPSSVDTLLSPTALIDSILRESEPAPASVTALTDARGHTDTEGRPPSPPPTSTPEKCLSVACLDKNELSDHLDAMDSNLDNLQTMLSSHGFSVDTSALLDLFSPSVTVPDMSLPDLDSSLASIQELLSPQEPPRPPEAENSSPDSGKQLVHYTAQPLFLLDPGSVDTGSNDLPVLFELGEGSYFSEGDGFAEDPTISLLTGSEPPKAKDPTVS | – | 3
